Experimental data taken from article PMC4734654 (Nature, 2015).
Values belong to the molecule of their own block, whether it stands above or below them.

Key:
[1] = target: OsSWEET2b, crystallisation construct (C-terminal 15 residues removed, reductively methylated) (Oryza sativa); experiment: crystal structure
[2] = target: the molecule itself; experiment: cross-linking

stoichiometry N [1]: 3
Molecule: OsSWEET2b, crystallisation construct (C-terminal 15 residues removed, reductively methylated) (natural protein)

B1: OsSWEET2b, purified in DDM for glutaraldehyde cross-linking (natural protein)
chain: MDSLYDISCFAAGLAGNIFALALFLSPVTTFKRILKAKSTERFDGLPYLFSLLNCLICLWYGLPWVADGRLLVATVNGIGAVFQLAYICLFIFYADSRKTRMKIIGLLVLVVCGFALVSHASVFFFDQPLRQQFVGAVSMASLISMFASPLAVMGVVIRSESVEFMPFYLSLSTFLMSASFALYGLLLRDFFIYFPNGLGLILGAMQLALYAYYSSNSLEVLFQ
stoichiometry N [2]: 3
